What was measured:
Assay in all cases: flow cytometry on modified HEK293T cells without CD74
[1] = biological target: SLA-DRα*020102 + DRβ1*0403 (pairing 1) on modified HEK293T cells without CD74 (pig)
[2] = biological target: SLA-DQα1*0204 + DQβ1*0303 (pairing 5) on modified HEK293T cells without CD74 (pig)
[3] = biological target: SLA-DQα1*0101 + DQβ1*0601 (pairing 8) on modified HEK293T cells without CD74 (pig)
[4] = biological target: SLA-DRα*w04 + DRβ1*0403 (pairing 3) on modified HEK293T cells without CD74 (pig)
[5] = biological target: SLA-DRα*w04 + DRβ1*1001 (pairing 4) on modified HEK293T cells without CD74 (pig)
[6] = biological target: SLA-DQα1*0101 + DQβ1*0303 (pairing 7) on modified HEK293T cells without CD74 (pig)
[7] = biological target: SLA-DRα*020102 + DQβ1*0303 (pairing 9) on modified HEK293T cells without CD74 (pig)
[8] = biological target: SLA-DRα*020102 + DRβ1*1001 (pairing 2) on modified HEK293T cells without CD74 (pig)
[9] = biological target: SLA-DRα*w04 + DQβ1*0303 (pairing 10) on modified HEK293T cells without CD74 (pig)
[10] = biological target: SLA-DQα1*0204 + DQβ1*0601 (pairing 6) on modified HEK293T cells without CD74 (pig)

Measured: background MFI

CerCLIP.1, a monoclonal antibody specific for invariant chain peptides associated with Class II SLA
1000 MFI: all assays above

From patent US20190004063A1
